Where no end group is shown, it is not given here.
B1: pol-N: N-terminal fragment of polydom, residues 18 to 789 of SEQ ID NO: 2, C-terminal His tag (protein, listed as Mus musculus)
chain: WTNFQPVAPSLNFSFRLFPEASPGALGRLAVPPASSEEEAAGSKVERLGRAFRSRVRRLRELSGSLELVFLVDESSSVGQTNFLNELKFVRKLLSDFPVVSTATRVAIVTFSSKNNVVARVDYISTSRAHQHKCALLSREIPAITYRGGGTYTKGAFQQAAQILRHSRENSTKVIFLITDGYSNGGDPRPIAASLRDFGVEIFTFGIWQGNIRELNDMASTPKEEHCYLLHSFEEFEALARRALHEDLPSGSFIQEDMARCSYLCEAGKDCCDRMASCKCGTHTGQFECICEKGYYGKGLQHECTACPSGTYKPEASPGGISTCIPCPDVSHTSPPGSTSPEDCVCREGYQRSGQTCEVVHCPALKPPENGFFIQNTCKNHFNAACGVRCRPGFDLVGSSIHLCQPNGLWSGTESFCRVRTCPHLRQPKHGHISCSTAEMSYNTLCLVTCNEGYRLEGSTRLTCQGNAQWDGPEPRCVERHCATFQKPKGVIISPPSCGKQPARPGMTCQLSCRQGYILSGVREVRCATSGKWSAKVQTAVCKDVEAPQISCPNDIEAKTGEQQDSANVTWQVPTAKDNSGEKVSVHVHPAFTPPYLFPIGDVAITYTATDSSGNQASCTFYIKVIDVEPPVIDWCRSPPPIQVVEKEHPASWDEPQFSDNSGAELVITSSHTQGDMFPHGETVVWYTATDPSGNNRTCDIHIVIKGSPCEVPFTPVNGDFICAQDSAGVNCSLSCKEGYDFTEGSTEKYYCAFEDGIWRPPYSTEWPDCAI
modifications: C-terminal His tag

Assays:
[1] = tested on: RD cells; test: Cell adhesion assay on coated plates (RD cells); type: cell-based, human; conditions: for promotion of RD cell adhesion: coated 96-well plates, 37° C. for 30 minutes
Experimental: A cell adhesion assay was performed as described in Sato, Y. , Uemura, T., Morimitsu, K., Sato-Nishiuchi, R., Manabe, R., Takagi, J., Yamada, M., and Sekiguchi, K. (2009) J. Biol. Chem. 284, 14524-14536. For an assay involving blocking antibodies, RD cells (human rhabdomyosarcoma cells) were preincubated with monoclonal antibodies of interest at room temperature for 15 minutes and plated on 96-well plates coated with recombinant polydom proteins or fibronectin. The cells were incubated for 30 minutes, washed, fixed with 3.7% formaldehyde, and stained with 0.5% toluidine blue.
The cells were plated on 96-well plates coated with serial diluted concentrations of full-length polydom, pol-N, pol-C or plasma fibronectin (FN) and incubated at 37° C. for 30 minutes. After washing out unattached cells, attached cells were fixed and stained with toluidine blue. The attached cells were counted under a microscope. The assay was performed in triplicate.

[2] = molecular target: T1, integrin α9β1 (Homo sapiens, UniProt P05556+Q13797); test: Direct integrin binding assay with recombinant integrin α9β1; conditions: for binding of recombinant integrin α9β1 to coated protein: 1 mM MnCl2, FIG. 7; for binding of integrin α9β1 to smaller segments of D2628-S2664: 1 mM MnCl2, FIG. 13
T1 construct: A cDNA encoding the extracellular region of human integrin α9; An expression vector for the extracellular region of integrin β1; ACID coiled-coil (Velcro) peptide; FLAG; BASE coiled-coil (Velcro) peptide; made in house; host or cells: FreeStyle 293 Expression System (293-F cells)
T1 sequence (Q13797 30-981 limits assumed): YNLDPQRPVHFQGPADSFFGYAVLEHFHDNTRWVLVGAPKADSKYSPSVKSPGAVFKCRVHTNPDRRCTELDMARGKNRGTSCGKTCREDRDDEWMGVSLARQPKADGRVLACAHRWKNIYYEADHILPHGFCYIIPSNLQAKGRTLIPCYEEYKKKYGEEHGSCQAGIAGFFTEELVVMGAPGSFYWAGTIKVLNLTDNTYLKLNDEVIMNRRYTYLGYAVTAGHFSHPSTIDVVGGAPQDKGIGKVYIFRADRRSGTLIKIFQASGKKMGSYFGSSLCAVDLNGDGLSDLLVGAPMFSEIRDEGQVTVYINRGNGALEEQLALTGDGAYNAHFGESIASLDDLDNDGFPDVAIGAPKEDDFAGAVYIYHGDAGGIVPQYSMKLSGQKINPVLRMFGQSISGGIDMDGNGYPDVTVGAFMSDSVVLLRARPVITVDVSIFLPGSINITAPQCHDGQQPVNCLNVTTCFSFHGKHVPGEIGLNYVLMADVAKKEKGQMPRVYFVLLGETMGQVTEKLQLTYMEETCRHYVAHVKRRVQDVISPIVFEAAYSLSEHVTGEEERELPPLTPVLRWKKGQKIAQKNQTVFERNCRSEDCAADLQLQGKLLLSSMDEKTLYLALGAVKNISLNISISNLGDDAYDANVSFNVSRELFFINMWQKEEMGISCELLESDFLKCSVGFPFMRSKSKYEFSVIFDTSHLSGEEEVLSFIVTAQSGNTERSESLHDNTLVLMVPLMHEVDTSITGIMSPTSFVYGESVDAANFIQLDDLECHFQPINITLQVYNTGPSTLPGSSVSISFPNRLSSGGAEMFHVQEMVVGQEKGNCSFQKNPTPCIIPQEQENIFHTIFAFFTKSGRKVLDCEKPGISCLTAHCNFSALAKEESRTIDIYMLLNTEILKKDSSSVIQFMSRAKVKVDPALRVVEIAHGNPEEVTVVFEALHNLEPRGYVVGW
T1 sequence (P05556 21-728 limits assumed): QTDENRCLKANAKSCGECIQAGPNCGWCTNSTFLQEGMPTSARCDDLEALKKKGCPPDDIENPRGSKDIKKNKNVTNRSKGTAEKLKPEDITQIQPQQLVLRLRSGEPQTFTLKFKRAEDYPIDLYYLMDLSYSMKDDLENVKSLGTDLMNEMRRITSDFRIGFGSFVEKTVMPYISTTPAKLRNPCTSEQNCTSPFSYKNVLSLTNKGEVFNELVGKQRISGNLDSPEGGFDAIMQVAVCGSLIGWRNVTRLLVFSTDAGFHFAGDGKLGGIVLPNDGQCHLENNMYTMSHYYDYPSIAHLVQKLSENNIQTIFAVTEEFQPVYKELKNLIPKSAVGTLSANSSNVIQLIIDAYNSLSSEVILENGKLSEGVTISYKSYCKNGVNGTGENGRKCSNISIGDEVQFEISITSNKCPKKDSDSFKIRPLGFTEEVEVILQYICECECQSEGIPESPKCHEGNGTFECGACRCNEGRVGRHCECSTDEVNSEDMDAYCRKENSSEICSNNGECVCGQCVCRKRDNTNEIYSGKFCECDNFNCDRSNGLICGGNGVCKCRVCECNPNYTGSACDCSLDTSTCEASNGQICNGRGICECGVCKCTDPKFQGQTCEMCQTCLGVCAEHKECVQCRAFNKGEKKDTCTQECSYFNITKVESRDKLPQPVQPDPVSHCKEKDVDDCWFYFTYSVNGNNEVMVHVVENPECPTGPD
From the text: A cDNA encoding the extracellular region of human integrin α9 was amplified by RT-PCR from total RNA extracted from RD cells and cloned into pBluescript KS(+). After verification of the nucleotide sequence, an error-free cDNA fragment was inserted into pcDNA-ACID-FLAG (Nishiuchi, R., Takagi, J., Hayashi, M., Ido, H., Yagi, Y., Sanzen, N., Tsuji, T., Yamada, M., and Sekiguchi, K. (2006) Matrix Biol. 25, 189-197). An expression vector for the extracellular region of integrin β1 was provided by Dr. Junichi Takagi (Takagi, J., Erickson, H. P., and Springer, T. A. (2001) Nat. Struct. Biol. 8, 412-416). The recombinant integrins were produced using the Freestyle™ 293 Expression System (Invitrogen) and purified as described in the above-mentioned publication Matrix Biol. 25, 189-197, (2006).
An integrin binding assay was performed as described in the above-mentioned publication Matrix Biol. 25, […], (2006). In some experiments, integrins were preincubated with synthetic peptides at various concentrations to evaluate the inhibitory activities of the synthetic peptides. The apparent dissociation constants were determined as described in Nishiuchi, R., Murayama, O., Fujiwara, H., Gu, J., Kawakami. T., Aimoto, S., Wada, Y., and Sekiguchi, K. (2003) J. Biochem, 134, 497-504.
To corroborate the role of integrin α9β1 as an adhesion receptor for polydom, a direct integrin binding assay was performed, using recombinant integrin α9β1. Plates were coated with full-length polydom, pol-N, pol-C, plasma fibronectin (pFN) or cellular fibronectin (cFN), and recombinant integrin α9β1 was added and allowed to bind thereto in the presence of 1 mM MnCl2 or 10 mM EDTA. BSA was used as a negative control. The bound integrin was quantified using a biotinylated anti-Velcro antibody and HRP-conjugated streptavidin.
Integrin α9β1 is known to bind to the third fibronectin type III domain of tenascin-C (TNfn3) and the osteopontin N-terminal half (OPN-Nhalf). These integrin α9β1 ligands were recombinantly expressed as GST fusion proteins and then purified. In the GST fusion proteins, the RGD cell-adhesive motifs were replaced with RAA to nullify their abilities to interact with RGD-binding integrins, such as those containing the αv subunit, Microtiter plates were coated with pol-C (10 nM), GST-TNfn3-RAA (100 nM) or GST-OPN-Nhalf-RAA (100 nM), and integrin α9β1 was added and allowed to bind thereto in the presence of 1 mM MnCl2.
To locate the integrin α9β1-binding site within polydom, a series of five N-terminal deletion mutants of polydom (pol-C, ΔEGF6, ΔPTX, ΔCCP20 and ΔCCP21; see FIG. 9) were constructed. Their binding activities for integrin α9β1 were evaluated in the presence of 1 mM MnCl2 or 10 mM EDTA using microtiter plates coated with these recombinant proteins (10 nM).
Among the 34 CCP domains within polydom, CCP21 is unique because it contains about 40 extra amino acids as compared with the other CCP domains. An assay to examine whether this extra region (hereinafter referred to as “extra segment”) within CCP21 is involved in binding to integrin α9β1 was performed, Microtiter plates were coated with a GST-CCP21 fusion protein, a D2628-S2664 deletion mutant of the GST-CCP21 fusion protein (CCP21ΔD2628-S2664), D2628-S2664 alone (see FIG. 11), pol-C or GST alone, and integrin α9β1 was added and allowed to bind thereto in the presence of 1 mM MnCl2 or 10 mM EDTA.
To further narrow down the region responsible for binding to integrin α9β1, the extra 37-amino acid segment of CCP21 was divided into smaller segments, of which GST fusion proteins were produced. Microtiter plates were coated with eight kinds of segments including CCP21, pol-C and GST alone, and integrin α9β1 was added and allowed to bind thereto in the presence of 1 mM MnCl2 or 10 mM EDTA.
To identify the residues involved in binding to Integrin α9β1, alanine scanning mutants and N-terminal or C-terminal deletion mutants of D2634-L2645 were produced as GST fusion proteins. […]

Row | Molecule | promotion of RD cell adhesion ([1]; FIG. 4) | binding of recombinant integrin α9β1 to coated protein [2] | binding of integrin α9β1 to smaller segments of D2628-S2664 ([2]; GST fusion proteins) | also measured
1 | pol-C: C-terminal fragment of polydom, residues 1192 to 3567 of SEQ ID NO: 2, C-terminal His tag | capable of promoting cell adhesion | bound |  | cell adhesion potency compared with full-length polydom ([1]; FIG. 4): almost equivalent to that of full-length polydom; morphology of attached RD cells ([1]; microscopic observation, FIG. 5): exhibited spread morphology; Kd ([2]; pol-C coated at 10 nM, 1 mM MnCl2, three independent determinations, read-out: dissociation constant between integrin α9β1 and ligand): 32.4 ± 2.7 nM
2 | D2634-L2645: 12-amino acid segment in the extra segment of CCP21, GST fusion protein (DQEDDMMEVPYL; also: GST fusion protein) |  |  | bound | 
3 | D2628-L2645: segment in the N-terminal region of D2628-S2664, GST fusion protein (DGQGHFDQEDDMMEVPYL; also: GST fusion protein) |  |  | bound | 
4 | E2641A: alanine substitution of Glu2641 in D2634-L2645, GST fusion protein (DQEDDMMAVPYL; also: GST fusion protein) |  |  |  | integrin binding activity of alanine scanning mutants of D2634-L2645 ([2]; GST fusion proteins, FIG. 14): almost completely abrogated the integrin binding activity
5 | D2628-S2664: extra 37-amino acid segment of CCP21, GST fusion (DGQGHFDQEDDMMEVPYLAHPQHLEATAKALENTKES; also: GST fusion) |  |  |  | binding to integrin α9β1 (extra segment of CCP21) ([2]; GST fusion proteins, 1 mM MnCl2, FIG. 12): retained the binding activity
6 | B1 | only pol-C was capable | not |  | 

Reference: patent US20150086557A1, “NOVEL INTEGRIN alpha9 beta1 LIGAND AND USES THEREOF” (OSAKA UNIVERSITY, priority 2012, published 2015)
